According to publication PMC2606091 (Cell, 2008):

What was measured:
Hsp33 (Escherichia coli) = Hsp33 (Escherichia coli) (UniProt P0A6Y5); conditions: cited from earlier work
AUC = biological target: the molecule itself; assay: AUC

Row | Molecule | Kd (Hsp33 (Escherichia coli)) [nM] | Kd (AUC) [nM] | stoichiometry N (AUC)
1 | Hsp33 (from UniProt P0A6Y5) | 590 |  | 
2 | Hsp33 oxidised and activated with a 10-fold molar excess of HOCl (Hsp33_(HOCl)) (natural protein, two intramolecular disulfide bonds (Cys232-Cys234; Cys265/Cys268 fully oxidised) after HOCl treatment) MPQHDQLHRYLFENFAVRGELVTVSETLQQILENHDYPQPVKNVLAELLVATSLLTATLKFDGDITVQLQGDGPMNLAVINGNNNQQMRGVARVQGEIPENADLKTLVGNGYVVITITPSEGERYQGVVGLEGDTLAACLEDYFMRSEQLPTRLFIRTGDVDGKPAAGGMLLQVMPAQNAQQDDFDHLATLTETIKTEELLTLPANEVLWRLYHEEEVTVYDPQDVEFKCTCSRERCADALKTLPDEEVDSILAEDGEIDMHCDYCGNHYLFNAMDIAEIRNNASPADPQVH |  | 570 | 2
